Laboratory results: the DeepSol protein solubility set

assay: soluble on expression in E. coli; label from the status in PepcDB or PDB records

Sequence	soluble on expression in E. coli
MNTTVEKQQIITSNTEQWKMYSKLEGKEYQIHISKPKQPAPDSGYPVIYVLDGNAFFQTFHEAVKIQSVRAEKTGVSPAIIVGVGYPIEGAFSGEERCYDFTPSVISKDAPLKPDGKPWPKTGGAHNFFTFIEEELKPQIEKNFEIDKGKQTLFGHSLGGLFALHILFTNLNAFQNYFISSPSIWWNNKSVLEKEENLIIELNNAKFETGVFLTVGSLEREHMVVGANELSERLLQVNHDKLKFKFYEAEGENHASVVPTSLSKGLRFISYV	soluble
MNVDARVGVAVDGAQSALNTATTVHSSVVMTQIKPQAKLGTFQNLLAGGIAGAISKTCTAPLARLTILFQLQGMQSEGAVLSRPNLRREASRIINEEGYRAFWKGNLVTVVHRIPYTAVNFYAYEKYNLFFNSNPVVQSFIGNTSGNPIVHFVSGGLAGITAATATYPLDLVRTRLAAQRNAIYYQGIEHTFRTICREEGILGLYKGLGATLLGVGPSLAINFAAYESMKLFWHSHRPNDSDLVVSLVSGGLAGAVSSTDDKLFDAHNYVATYPLDLVRRRMQVEGAGGRARVYNTGLFGTFKHIFKSEGFKGIYRGILPEYYKVVPGVGIVFMTYDALRRLLTSLPD	soluble
MNVLFTSVPQEDVPFYQEALKDLSLKIYTTDVSKVPENELKKAELISVFVYDKLTEELLSKMPRLKLIHTRSVGFDHIDLDYCKKKGILVTHIPAYSPESVAEHTFAMILTLVKRLKRIEDRVKKLNFSQDSEILARELNRLTLGVIGTGRIGSRVAMYGLAFGMKVLCYDVVKREDLKEKGCVYTSLDELLKESDVISLHVPYTKETHHMINEERISLMKDGVYLINTARGKVVDTDALYRAYQRGKFSGLGLDVFEDEEILILKKYTEGKATDKNLKILELACKDNVIITPHIAYYTDKSLERIREETVKVVKAFVKGDLEQIKGNFVVGPS	soluble
MNVTSVTSEDGVKEFEKIVVEPEDIEYVEIPADAKNVDLTRHRIKEIGDYSWLTHVEHFSFRWNLIKKIENLDCLTTLTHLEFYDNQITKVENLDSLVNLESLDLSFNRITKIENLEKLTKLKTLFFVHNKITKIEGLDTLTELEYLELGDNRIAKIENLDNNLKLDRLFLGANQIRLIENVDHLKKLTVLSLPANAITVVDNISGLHNLKEIYLAQNGIKYVCGIDEHLPLEILDFNQNRLEKVENIHQLKTLTDFWARGNKLDNWSIMDELVELPQLNSVYLDFNPIASVDTYRGKVIHLLQQITRLDGTQCREHSMLRPPKEEKNETELSRVVLDNPSDDHPTESV	not soluble
MNWPLLYDMQRMLDRRIETEHGLMEEDLFARKQLAFLVELGELANETRCFKFWSIKPPAPAERVLEEYVDGLHFLLSLGLECGLFYEENEAPSAGRPLVEQFLAVFRAAERFGETRARGEYDALFAEYWRLGVALGFSSDDIEAAYRRKNEVNHKRQNERY	not soluble
MNYFFCADESRQVNEDPIGSGCRRQCYVLIECPPPWMANEFDSKAVPANLRSLENEFYAVEPDGILLFIYSEELRQNYLTRILIFRPMMGYSGGYIKQEIHVSSLEDVAIVLKDWLAGKDIADTDINPHTRDILVCTHGTHDKCCAKYGIPFYRQAKNIVADLAVESVRIWQSSHFSGHRFAPTILDLPQGRYYGKLDCQSFTNILTYTGDINCLKSIYRGWGILPFPAQVMEGELIFLHGWQWFNYKVSCCFIEQSEDECFNRIEISAILPDGDIKTYQADVVEDESKSIYLIGDCHGIEPELIPKYSVNNLIQII	not soluble
MNYGFVKVAAAVPHVKVADCKFNVERIESQIAIAEGKGVQIIVFPEMSITGYTCGDLFGQQILLEEAEMGLMQILNNTRQLDIISIVGMPVVVNSTVINAAVVIQKGKVLGVAAKTYLPNYKEFYEQRWFTSALQLTEDTVRLCGQIVPIGANLLFETSDTTFGIEICEDLWATIPPSSSLALQGAEIIFNMSADNEGIGKHHYLCSLISQQSARCIAGYVFSSCGFGESTTDVVFAGNGLIYENGSLLARSKRFCMEEQLIISEIDVERIRAERRINTTFAASQGNPGDKKAISVATEFVNSKELTLTRDFNSHPFVPQGAELDEHCEEVFSIQIAGLAQRLVHTKAKTAVVGISGGLDSTLALLVCVKTFDKLGLPRKDILGVTMPGFGTTDRTYNNAIDLMKSLGISIREISIQDACIQHFKDIDHDINVHDVTYENSQARERTQILMDIANQTWGMVVGTGDLSELALGWATYNGDHMSMYGVNGSIPKTLVKYLVQWVAENDMDEDAKATLLDIVDTPISPELIPADENGEIKQKTEDLVGPYELHDFFLYYFLRFGFRPSKIYYLANIAFKDVYDKETIKKWLSTFFRRFFNQQFKRSCLPDGPKVGSISISPRGDWRMPSDASSTIWLKEIEDLLEHHHHHH	not soluble
MNYIQLQRFNMSKVASIVDVLQGKVAIGETVTVRGWVRTRRDSKAGLSFLAVYDGSCFDPIQAIINNDIENYESEILRLTTGCSVIVTGKVVESPAEGQAVELQAEKVEVTGFVEDPDTYPMAAKRHSIEYLREVAHLRPRTNIIGAVARVRHCLSQAIHRFFHEQGFYWVATPLITASDTEGAGEMFRVSTLDLENLPRSENGKVDFSQDFFGKESFLTVSGQLNGETYACALSKIYTFGPTFRAENSNTTRHLAEFWMVEPEVAFATLADNAKLAEDMLKYVFRAVLAERKDDLQFFEKHVDKDVITRLENFVNSDFAQIDYTDAIDVLLKSGKKFEFPVSWGIDLSSEHERFLAEEYFKSPVVVKNYPKDIKAFYMRLNDDEKTVAAMDVLAPGIGEIIGGSQREERLEVLDKRMEEMGLNPDDYWWYRDLRKYGSVPHSGFGLGFERLIVYVTGVQNIRDVIPFPRAPRNANFLEHHHHHH	soluble
MNYPLIFAENQRIETERLILRPVTLADAEDMYEYASDEETVRYVFLKNQTIAETRQNIAKFFMGEPLGKYGIEVKETGKMIGTIDLRVNETNNIGELGYVLNRTFWGNGYMPEAATALVELGFAKMKLMRIFALHDQDNPASGRVMEKIGFTYEGTLPNARISKGKIVTDVYRGMTLETWQNRQK	soluble
MNYYSEKIEVVKLADQVAAKLQQLIGSGEYKKGDKIPTEPELMARFGVGRSTVRESVRILANAGLLSVLQGKGTFVQDTTVVAEPLHQRLRRANNKELNEVRHMLEITMVQKAAENRTEKEVKQMRTLLNQRRRAIEEQLQDECLNADIAFHVVIAEASKNQVLIDLYKTFSKVISEYFQTEYPDTKAYKRSQALHEKLCDAIATKESKKAAEYMSQILSLD	not soluble
MPAAGQAPGPECPDVLIIGGGPAGCAAAIVLAQQGWAVTLLEKEQHPRFHIGESLLPMNIPILERLGVLEQVRDIGVLKRGADFPNDAGGYNTFRFSHALDAKADYAFQVPRAQFDQVLFARAREVGVDAREQVKVESVAFDGEQPVLQARGVDGVQQFRPRYLLDASGRDTFMGNRLKLKRANAKHQSAAVFSHFRGVTRRPGEDAGNISIYRHAHGWMWLIPLPDDVMSVGAVCYPDYMKTRKGDSEGFLLRTLALNPEVAARMADAERVAPVHATGNYAYECTRMSGPRWLLLGDAYTFVDPMFSSGVFLAMHSAERGAAMVDAVLRAPHREASLQRALSRELARGLSEFKWFIYRFTSPTMRALFAQPQNVWQVEQAVVAMLAGDVFDSPKVRRRLRVFRAIYSVTALSMLPRAWHAWRHRRRQARLGFDGDTLHRDAPLEHHHHHH	not soluble
MPAWAARLGASRDQQRALEEERSRTQAALQVMPHMLIELDADERLLRGHPGWLDRLPTLGPMAPGQGLQDFLPVDLATEVRRVLAEVETTGAPVSRDWQVRQAGARVWLAISAARLPPLA	not soluble
MPCRGLHAIPAGPPEFPELATIYVVCGDKLNVMIDAGVTNSIMDSSFLEKLDLVILTHIHIDHIGLLPEILDRYKNAKVMIKNGFKKFLTTEDGVRRLNESSEKVLGDLYYIYGEFTKIDPDKVVEVEGGEMIDIGDGKTLKIIYTPGHAKHHISVVSDDILFTGDSGGAYFNGAVIPTTPPPLDYDNYVNSLRLQISLKPKVVGLAHGGLVSPNILEQHLDQMLGKESFDIGEIDIGGIGGEILRKQVEVNLRGLNEALGRNKKTLLEHHHHHH	not soluble
MPEEKQKKSVLEKALKRIEENFGKGSIMILGDETQVQPVEVIPTGSLAIDIATGVGGYPRGRIVEIFGQESSGKTTLALHAIAEAQKMGGVAAFIDAEHALDPVYAKNLGVDLKSLLISQPDHGEQALEIVDELVRSGVVDLIVVDSVAALVPRAEIEGAMGDMQVGLQARLMSQALRKIAGSVNKSKAVVIFTNQIRMKIGVMFGSPETTTGGLALKFYATMRMEVRRGEPIKEGKDVIGNVISVKIVKNKVAPPFKTAQTYIIYGKGIDREYELFNIAVNEGIVDRKGSWYYYTTLKGEEVSLGQGSSNAVQFLKDNPEIAGEIERRIREKYGLLSVEKEEQRKEKKSSGEEAS	soluble
MPEITESERAYHLRKMKTRMQRVDVTGDGFISREDYELIAVRIAKIAKLSAEKAEETRQEFLRVADQLGLAPGVRISVEEAAVNATDSLLKMKGEEKAMAVIQSLIMYDCIDTDKDGYVSLPEFKAFLQAVGPDLTDDKAITCFNTLDFNKNGQISRDEFLVTVNDFLFGLEETALANAFYGDLVD	soluble
MPEPHPAPQPYTVAALYQFRALPDPAALRAELLALGERLELCGTLIVADEGINGTVAGSAAAIAELHAFLLASGFDRLEYKESQASEKPFKRYKVRLKKEIVTLGVPVAPREQVGTYLDPQAWNDLLADPEVIVVDTRNRYEVKAGTFQGAVDPEIDSFREFPAWVDEHLAGAEGKKIAMFCTGGIRCEKSTSLLLQKGFQDVYHLKGGILKYLEDVPQAQSRWDGECFVFDGRVTVGHGLQEGDAVMCHSCGWPLTAQERAHPQFEEGVSCEHCFDETTDVQKAAFRERQRMYEAGHLTLEHHHHHH	not soluble
MPEPTPTAYPVRLDELINAIKRVHSDVLDQLSDAVLAAEHLGEIADHLIGHFVDQARRSGASWSDIGKSMGVTKQAAQKRFVPRAEATTLDSNQGFRRFTPRARNAVVAAQNAAHGAASSEITPDHLLLGVLTDPAALATALLQQQEIDIATLRTAVTLPPAVTEPPQPIPFSGPARKVLELTFREALRLGHNYIGTEHLLLALLELEDGDGPLHRSGVDKSRAEADLITTLASLTGANAAGATDAGATDAG	soluble
MPFFANSDPMMSKLSQIQFADAPTLKGDKYPDVDAHRIIAPIISPIMEVFDQMKENQRARDQAEKIRKDREDHPLSTSRSLWEMFQRLQRPTTTTTEAPPLIERLFKPYIEPWQKQLDDFSKDMAGITLIPTTTTTPAPTTTTTPNFLEKSLSMFFPSLRRKPQSIPTLPPTTTPTPRLFDPEMFDRLFFKRDKRQATIAPAPKFDIFTVPPPPPLFQEWEKPILSLSNPFTLNPLMKMFTTPSPPQTLAPLPKIPEPNPYEIKKGLPEPQFKLQDPFYNPLFPSRKSKMFDFLAGGEAGRLLG	not soluble
MPFLPPLTPPTELYLGIQLPSPISILVNYLPVSQTPIETLRNLVYSCDINTLAIDEFMTWPSLLQPGSPFRPYFEVLVERGSIPAVYLEGVRQASNFVTVAQGLSVMTTVALSDPFACFATGLFLTCTGNHLDFLPISEKFWEMTPTLEAGHAVAEMVMYHISQLHTENARRWERSWRFVHLPSCVGQCTFHHGCRVCFFYWYAREMAIFY	soluble
